Results on one molecule are retold here after doi:10.1101/2021.10.15.464611.

The assay deals with anti-PfTRAP monoclonal antibody AKBR-7 (mouse). Briefly: BLI. On the technique in general: Biolayer interferometry detects binding as a change in optical thickness at a sensor tip.

B1: Plasmodium falciparum TRAP ectodomain (PfTRAP) (domain or fragment)
chain: RDVQNNIVDEIKYSEEVCNDQVDLYLLMDCSGSIRRHNWVNHAVPLAMKLIQQLNLNDNAIHLYVNVFSNNAKEIIRLHSDASKNKEKALIIIRSLLSTNLPYGRTNLTDALLQVRKHLNDRINRENANQLVVILTDGIPDSIQDSLKESRKLSDRGVKIAVFGIGQGINVAFNRFLVGCHPSDGKCNLYADSAWENVKNVIGPFMKAVCVEVEKTASCGVWDEWSPCSVTCGKGTRSRKREILHEGCTSEIQEQCEEERCPPKWEPLDVPDEPEDDQPRPRGDNSSVQKPEENIIDNNPQEPSPNPEEGKDENPNGFDLDENPENPPNPDIPEQKPNIPEDSEKEVPSDVPKNPEDDREENFDIPKKPENKHDNQNNLPNDKSDRNIPYSPLPPKVLDNERKQSDPQSQDNNGNRHVPNSEDRETRPHGRNNENRSYNRKYNDTPKHPEREEHEKPDNNKKKGESDNKYK
The Kd is the constant that tells how readily two partners part at equilibrium. Read a low Kd as higher affinity. Molecule B1 showed a Kd of 0.15 nM.
